± gives the standard deviation of the averaged measurements.
B1: library; a variant is named by its letters at N, in order (parent)
chain: GCUGUCACCGGUGUAUUACCCUAGUGGUCGACCGGUCUGAUGAGUCUNNNNNNAGACGAAACAGC

Legend:
[1] = variants of: B1; test: FACS-Seq fitted mean relative fluorescence mCherry/BFP without ligand (log10 relative fluorescence); ligand: hypoxanthine (xanthine aptamer); higher = higher reporter protein expression; details: HEK293T, ligand present: no
In short: (§1)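 HEK293T libraries were made by lentiviral transduction with a ribozyme-switch mCherry reporter and an EF1α-BFP marker, enriched, and incubated with or without ligand for 48 h. Cells were sorted into 6 mCherry/BFP bins, and each bin's genomic DNA was PCR-amplified, barcoded and run on MiSeq. Fluorescence was derived by normal fitting of the bin counts. The fitted log10(mCherry/BFP) mean was scaled to five spiked-in control ribozymes.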

[2] = variants of: B1; test: normalized RNA/DNA level with ligand (relative to sTRSVctl = 100) (log10 (% of sTRSVctl)); ligand: hypoxanthine (xanthine aptamer); higher = less ribozyme self-cleavage, higher mRNA level; details: ligand concentration (+) RNA-Seq: 5 mM, HEK293T, reporter: mCherry (pCS4076), ligand present: yes
In short: (§2)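 For each 6-well well, 4 µg of library plasmid encoding mCherry-linked ribozyme switches, or eGFP-linked ones in some ligand experiments, was transfected into HEK293T. Any ligand was added 1 h before transfection, and RNA was extracted with EDTA 72 h after it, then reverse-transcribed, amplified, barcoded and sequenced. RNA level was obtained by dividing RNA reads by DNA reads, normalizing to a spiked-in non-cleaving sequence or to the top sequences, then scaling and log-transforming. The top set was 25 sequences, scaling was ×100 with log10, and ≥100 DNA reads were required.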

[3] = variants of: B1; test: normalized RNA/DNA level without ligand (relative to sTRSVctl = 100) (log10 (% of sTRSVctl)); ligand: hypoxanthine (xanthine aptamer); higher = less ribozyme self-cleavage, higher mRNA level; details: HEK293T, reporter: mCherry (pCS4076), ligand present: no
In short: as §2

[4] = variants of: B1; test: FACS-Seq fitted mean relative fluorescence mCherry/BFP with ligand (log10 relative fluorescence); ligand: hypoxanthine (xanthine aptamer); ligand concentration (+) FACS-Seq: 5 mM; higher = higher reporter protein expression; details: HEK293T, ligand present: yes
In short: as §1

| Variant | FACS-Seq fitted mean (log10) [1] | normalized RNA/DNA level with ligand (log10) [2] | normalized RNA/DNA level without ligand (log10) [3] | FACS-Seq fitted mean (log10) [4] |
| --- | --- | --- | --- | --- |
| ACUACG | 0.398 ± 0.086 | 1.93 ± 0.071 | 1.471 ± 0.0099 | 0.666 ± 0.077 |
| GGAACG | 0.254 ± 0.083 | 1.88 ± 0.072 | 1.503 ± 0.015 | 0.597 ± 0.098 |
| CCGGGA | 0.607 ± 0.06 | 1.97 ± 0.022 | 1.82 ± 0.037 | 0.674 ± 0.071 |
| CCGGGC | 0.124 ± 0.013 | 1.99 ± 0.074 | 1.88 ± 0.019 | 0.382 ± 0.068 |
| UGAACU | -0.346 ± 0.014 | 1.913 ± 0.013 | 1.89 ± 0.0097 | 0.000122 ± 0.018 |
| UGAACA | 0.901 ± 0.04 | 1.955 ± 0.014 | 1.86 ± 0.027 | 0.802 ± 0.072 |
| ACUCCG | 0.262 ± 0.039 | 1.895 ± 0.0092 | 1.44 ± 0.026 | 0.615 ± 0.02 |
| ACUCCC | -0.354 ± 0.031 | 1.96 ± 0.06 | 1.924 ± 0.019 | -0.746 ± 0.075 |
| CCUGCG | -0.205 ± 0.019 | 1.98 ± 0.015 | 1.86 ± 0.0037 | -0.2206 ± 0.00099 |
| GCUGUG | 0.345 ± 0.079 | 1.93 ± 0.025 | 1.76 ± 0.022 | 0.539 ± 0.081 |
| UCUGUG | -0.545 ± 0.051 | 1.91 ± 0.052 | 1.706 ± 0.0071 | -0.796 ± 0.03 |
| GCGGGU | 0.731 ± 0.07 | 1.97 ± 0.048 | 1.83 ± 0.016 | 0.735 ± 0.05 |
| GCGGGG | 0.17 ± 0.0079 | 1.96 ± 0.031 | 1.56 ± 0.026 | 0.433 ± 0.03 |
| GCGGGA | 0.182 ± 0.017 | 1.97 ± 0.034 | 1.718 ± 0.012 | 0.591 ± 0.025 |
| ACUGUG | 0.119 ± 0.026 | 1.85 ± 0.033 | 1.42 ± 0.069 | 0.0877 ± 0.23 |
| UGAAGA | 0.306 ± 0.01 | 1.896 ± 0.015 | 1.55 ± 0.025 | 0.576 ± 0.08 |
| UGAAGU | 0.226 ± 0.04 | 1.87 ± 0.037 | 1.555 ± 0.012 | 0.496 ± 0.012 |
| UCUUGA | 0.296 ± 0.011 | 1.94 ± 0.035 | 1.51 ± 0.036 | 0.572 ± 0.0065 |
| GCUACG | 0.064 ± 0.029 | 1.95 ± 0.078 | 1.517 ± 0.015 | 0.42 ± 0.0069 |
| GCUACC | 0.407 ± 0.037 | 1.91 ± 0.07 | 1.76 ± 0.024 | 0.599 ± 0.028 |
| GCGUUG | 0.142 ± 0.042 | 1.78 ± 0.034 | 1.3 ± 0.027 | 0.658 ± 0.021 |
| GCGUUA | 0.535 ± 0.018 | 1.94 ± 0.037 | 1.65 ± 0.073 | 0.594 ± 0.022 |
| ACGUAA | 0.16 ± 0.018 | 1.86 ± 0.072 | 1.491 ± 0.0093 | 0.4284 ± 0.0027 |
| ACGUAG | -0.209 ± 0.01 | 1.61 ± 0.021 | 1.16 ± 0.054 | 0.574 ± 0.028 |

| Variant | FACS-Seq fitted mean (log10) [1] | normalized RNA/DNA level with ligand (log10) [2] | normalized RNA/DNA level without ligand (log10) [3] | FACS-Seq fitted mean (log10) [4] |
| --- | --- | --- | --- | --- |
| CCGGUU | 0.42 ± 0.083 | 2.026 ± 0.011 | 1.91 ± 0.032 | 0.297 ± 0.098 |
| CCGGUG | 0.264 ± 0.0078 | 1.87 ± 0.087 | 1.45 ± 0.044 | 0.594 ± 0.0013 |
| ACGUGG | 0.0467 ± 0.0087 | 1.54 ± 0.018 | 1.13 ± 0.016 | 0.697 ± 0.018 |
| ACGUGU | 0.135 ± 0.003 | 1.87 ± 0.047 | 1.4 ± 0.027 | 0.682 ± 0.074 |
| ACGUGA | -0.0934 ± 0.0088 | 1.808 ± 0.01 | 1.17 ± 0.023 | 0.256 ± 0.055 |
| GCUAUG | 0.086 ± 0.067 | 1.86 ± 0.025 | 1.36 ± 0.065 | 0.318 ± 0.022 |
| GCUAUU | 0.263 ± 0.011 | 1.927 ± 0.011 | 1.89 ± 0.004 | 0.412 ± 0.06 |
| ACUCGA | 0.714 ± 0.029 | 1.958 ± 0.017 | 1.74 ± 0.043 | 0.665 ± 0.029 |
| ACUCGG | 0.949 ± 0.075 | 1.87 ± 0.042 | 1.44 ± 0.12 | 0.651 ± 0.2 |
| ACUUAA | 0.504 ± 0.046 | 1.933 ± 0.0065 | 1.787 ± 0.01 | 0.596 ± 0.075 |
| ACUUAG | 0.227 ± 0.048 | 1.81 ± 0.025 | 1.52 ± 0.061 | 0.503 ± 0.042 |
| CCGUGU | 0.225 ± 0.038 | 1.89 ± 0.12 | 1.69 ± 0.017 | 0.616 ± 0.025 |
| CCGUGG | 0.237 ± 0.043 | 1.823 ± 0.0069 | 1.23 ± 0.16 | 0.718 ± 0.053 |
| CCGUGA | 0.311 ± 0.044 | 1.973 ± 0.0073 | 1.565 ± 0.012 | 0.64 ± 0.017 |
| UCUCAG | 0.173 ± 0.045 | 1.82 ± 0.061 | 1.34 ± 0.038 | 0.474 ± 0.094 |
| CGAAAA | 0.531 ± 0.032 | 1.89 ± 0.062 | 1.6917 ± 0.00075 | 0.67 ± 0.045 |
| CGAAAC | 0.667 ± 0.046 | 1.92 ± 0.063 | 1.732 ± 0.0036 | 0.6 ± 0.081 |
| CGAAAU | 0.0751 ± 0.04 | 1.91 ± 0.049 | 1.73 ± 0.021 | 0.0235 ± 0.19 |
| GCUUUC | 0.909 ± 0.14 | 1.959 ± 0.011 | 1.835 ± 0.016 | 0.723 ± 0.024 |
| GCUUUG | -0.186 ± 0.032 | 1.91 ± 0.048 | 1.56 ± 0.018 | 0.36 ± 0.05 |
| GCUUUA | 0.789 ± 0.044 | 1.8872 ± 0.00046 | 1.93 ± 0.027 | 0.795 ± 0.071 |
| UCUAUC | 0.701 ± 0.082 | 2.046 ± 0.019 | 2 ± 0.023 | 0.59 ± 0.08 |
| UCUAUG | 0.305 ± 0.056 | 1.906 ± 0.008 | 1.74 ± 0.019 | 0.426 ± 0.018 |
| GCUGGG | 0.121 ± 0.13 | 1.94 ± 0.0053 | 1.55 ± 0.083 | 0.547 ± 0.091 |

| Variant | FACS-Seq fitted mean (log10) [1] | normalized RNA/DNA level with ligand (log10) [2] | normalized RNA/DNA level without ligand (log10) [3] | FACS-Seq fitted mean (log10) [4] |
| --- | --- | --- | --- | --- |
| GCUGGC | 0.495 ± 0.075 | 1.85 ± 0.12 | 1.78 ± 0.038 | 0.468 ± 0.018 |
| GCUCAA | 0.9407 ± 0.005 | 1.92 ± 0.041 | 1.71 ± 0.076 | 0.495 ± 0.11 |
| GGAAAG | 0.282 ± 0.038 | 1.8 ± 0.018 | 1.34 ± 0.094 | 0.711 ± 0.029 |
| GGAAAA | -0.00225 ± 0.06 | 1.925 ± 0.018 | 1.686 ± 0.006 | 0.168 ± 0.059 |
| GCUGAA | 0.332 ± 0.011 | 1.91 ± 0.032 | 1.76 ± 0.038 | 0.43 ± 0.092 |
| GCUGAU | 0.294 ± 0.021 | 1.97 ± 0.029 | 1.776 ± 0.014 | 0.376 ± 0.054 |
| ACGUUG | -0.189 ± 0.0052 | 1.79 ± 0.033 | 1.28 ± 0.019 | 0.488 ± 0.021 |
| ACUCUA | 0.438 ± 0.061 | 1.947 ± 0.0039 | 1.86 ± 0.055 | 0.585 ± 0.062 |
| ACUCUU | 0.342 ± 0.07 | 1.95 ± 0.029 | 1.84 ± 0.056 | 0.517 ± 0.056 |
| ACUCUG | 0.335 ± 0.0076 | 1.89 ± 0.054 | 1.516 ± 0.0021 | 0.677 ± 0.02 |
| ACUGGU | 0.0934 ± 0.044 | 1.926 ± 0.0036 | 1.65 ± 0.06 | 0.1 ± 0.11 |
| ACUGGA | 0.309 ± 0.0042 | 1.952 ± 0.017 | 1.71 ± 0.03 | 0.587 ± 0.064 |
| ACGGGG | -0.145 ± 0.048 | 1.81 ± 0.035 | 1.33 ± 0.058 | 0.5396 ± 0.0011 |
| ACGGGC | 0.13 ± 0.011 | 1.94 ± 0.035 | 1.79 ± 0.035 | 0.4948 ± 0.0031 |
| ACGGGU | 0.0468 ± 0.038 | 1.79 ± 0.025 | 1.33 ± 0.07 | 0.569 ± 0.011 |
| ACGGGA | 0.166 ± 0.0066 | 1.84 ± 0.024 | 1.371 ± 0.0073 | 0.623 ± 0.022 |
| UCGGUA | 0.215 ± 0.024 | 1.912 ± 0.014 | 1.562 ± 0.014 | 0.485 ± 0.04 |
| UCUAGC | 0.834 ± 0.0096 | 1.95 ± 0.023 | 1.85 ± 0.032 | 0.666 ± 0.062 |
| UCUAGA | 0.927 ± 0.07 | 1.91 ± 0.028 | 1.69 ± 0.056 | 0.0154 ± 0.086 |
| UCUAAA | 0.325 ± 0.034 | 1.96 ± 0.035 | 1.79 ± 0.062 | 0.0897 ± 0.011 |
| UCUAAU | 0.308 ± 0.028 | 1.92 ± 0.022 | 1.79 ± 0.039 | 0.511 ± 0.032 |
| UCUAAG | 0.59 ± 0.091 | 1.9502 ± 0.0012 | 1.7 ± 0.088 | 0.678 ± 0.094 |
| ACUCAU | 0.604 ± 0.014 | 1.95 ± 0.042 | 1.84 ± 0.026 | 0.7156 ± 0.0036 |
| ACGGUA | 0.318 ± 0.0024 | 1.85 ± 0.056 | 1.57 ± 0.064 | 0.5989 ± 0.004 |

From the supplement of paper PMC6757056
